B1: TPR t1 (parent)
chain: GACCAAUCUGCCCUCAGAGCUCGAGAACAUCUUCGGAUGCAGAGGAGGCAGGCUUCGGUGGCGCGAUAGCGCCAACGUCCUCAACCUCCAAUGCAUCCCACCACAUGAUGAUGCCUGAAGAGCCUUGGUUUUUUG

In this data set the parent is B1. Put plainly: polymerase ribozyme fitness, log enrichment relative to wild type (log ratio); higher = more active; in vitro selection for triplet polymerase activity. In outline:
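Frozen incubation at −7 °C formed the core of a single, triplicate in vitro selection round applied to PCR-built, transcribed mutant libraries of each subunit of a heterodimeric triplet polymerase ribozyme. Extended constructs were gel-excised, captured with streptavidin beads and amplified by RT-PCR, and input and output libraries were Illumina-sequenced with a filter of ≥10 input reads and ≥1 read per output. Fitness is the logarithm of genotype enrichment relative to wild-type enrichment, with inverse-variance-weighted replicate averaging, and the logarithm is base 2.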
For the variant GACCAAACCGCCCUCAGAGCUCGAGAACAUCUUCGGAUGCAGAGGAGGCAGGCUUCGGUGGCGCGACAGCGCCAACGUCCUCAACCUCCAAUGGAUCCCACCACAUGAUGAUCCCUGAAGAGCCUUGGUUUUUUG, the “polymerase ribozyme fitness (log ratio)” value was -7.09.

Turning to GACCAAUCUGCCCUCAGAGCUCGAGUACAUCUUCGGAUGCAGAGGAGGCAGGCUUCGGUGGCGCGAUAGCAUCAACGUCCUCAACCUCCCAUGCAUCCCACCACAAGAUGAUGCCUGAAGAGCCUUGGUUUUUUG, the “polymerase ribozyme fitness (log ratio)” value was -5.08.

As for GACCAAUCUGCCCUCAGAGCUCGAGAACAUCUUCGGAUGUAAAGGAGGCAGGCUUUGGUGGCGCGAUAGCGCCAACGUCUUCAACCUCCAAUGCAUCCCACCACAUGAUGAUGCCUGAAUAGCCUUGGUUUCUUG, the “polymerase ribozyme fitness (log ratio)” value is -3.64.

Turning to GACCAAUCUGCCCUCAGAGCUCGAGAACAUCUUCGGUUGCAGAGGAGGCAGGCUUCGGUGGCGCGAUAGCGCCAACGUCCUCAACCUCCAAUGCAUCCCACCACAUGAUGAUGCCUGAAGAGCCUUGGUUAUUUG, the “polymerase ribozyme fitness (log ratio)” value is -0.895.

Take GACCAAUCUGCCCUCAGAGCUCGAGAACAUCUUCGGAUGCAGAGGAGGCAGGCUUCGGUGUCGCGAUAGCGCCAACGUCCUCAACCUCCAAUGCAUCCCACCACAUGAUGAUGCCUGAAGAGCUUUGGUUUUUUG: the “polymerase ribozyme fitness (log ratio)” value amounted to 1.52.

Take GACCAAUCUGCCCUCAGAGCUCGAGAACAUCUUCGGAUGCAGAGGAGGCAGGCUUCGUUGGCGCGAUAGCGCCAACGUCCUCAACCUCCAAUGCAUCCCACCACACGAUGAUGCCUGAAGAGCUUUGGUAUUUUG: the “polymerase ribozyme fitness (log ratio)” value is -0.269.

Take GACCAAUCUACCCUCAGAGCUCGAGAACAUCUUCGGAUGCAGAGGAGGCAGGCUUCGGUGGCGCGAUAGCGCCGACGUCCUCAACCUCCAAUGCAUCCCACCACAUGAUGAUGCCUGAUGAGCCUUGGUUUUUUG: the “polymerase ribozyme fitness (log ratio)” value is -0.71.

For the variant GACCAAUCUGCCCUCAGAGCUCGAGAACAUCUUCUGAUGCAGAGGAGGCAGGCUUCGGUGGCGCGAUAGCGCCAACGUCCUCAACCUCCAAUGCAUCCCAACACAUGAUGAUCCCUGAAGAGCCUUGGUUUUUUG, the “polymerase ribozyme fitness (log ratio)” value is -6.29.

As for GACCAAUCAGCCCUCAGAGCUCGAAAACAUCUUCGGAUGCAGAGGAGGCAGGCUUCGGUGGCGCGAUAGCGCCAACGUCCUCAACCUCCAAUGCAUCCCACCACAUGAUGAUGCCUGAAGAGCCUUGGUUUUUUG, the “polymerase ribozyme fitness (log ratio)” value is -5.66.

Turning to GACCAAUCUGCCCUCAGAGCUCGAGAUCAUCUUCGGAUGCUGAGGAGGCAGGCUUCGGUGGCGCGAUAGCGCCAACGUCCUCAACCUCCAAUGCAUCCCACCACAUGAUGAUGCCUGAAGAGCCUUGGUUUUUUG, the “polymerase ribozyme fitness (log ratio)” value is -4.42.

For the variant GACCAAUCUGCCCUCAGAGCUCGAGAACAUCUUCGGAUGCACAGGAGGCAGGCUUCGGUGACGCGAUAGCGCCAACGUCCUCAACCUCCAAUGCAUCCCACCACAUGAUGAUGCCUGAAGAGCAAUGGUUUUUUG, the “polymerase ribozyme fitness (log ratio)” value is 0.506.

As for GCCCAAUCUGUCCUCAGAGCUCGAGAACAUCUUCGGAUGCAGAGGAGGCAGGCUUCGGUGGCGCGAUAGCGCCAACGUCCUCAACCUCCAAUGCAUCCCACCACAUGAUGAUGGCUGAAGAGCCUUGGUUUUUUG, the “polymerase ribozyme fitness (log ratio)” value is -4.14.

As for GACCAAUCUGCCCUCAGAGCUCGAGAACAUCUUAGGAUGCAGAGGAGGCAGGCUUCGGAGGCGCGAUAGCGCCAACGUCCUCAACCUCCAAUGCAUCCCACCACAUGAUGAUGCCUGAAGAGCAUUGGUUUUUUG, the “polymerase ribozyme fitness (log ratio)” value was -0.848.

Take GACCAAUCUGCCCUCAGAGCUCGAGAACAUCUUCGGAUGCAGAGGAGGCAGGCUUCGGUGGCGCGAUAGCGCCAACGUCAUCAACCUCCAAUACAUCCCACCACAUGAUGAUGCCUGAAGAGCCUUGGUUUUUUG: the “polymerase ribozyme fitness (log ratio)” value was -3.95.

As to GACCAAUCUGCCCUCAGAGCUCGAGAACAUCUUCGGAUGCAGAGGAGGCAGGCUUCGGUGGCGCGAUAGCGCCAACGUCCUCAACCUCCAAUGAAUCCCACCACAUGAUGAUGCCUGAAGAGCCUUGGUUUAUUG, the “polymerase ribozyme fitness (log ratio)” value was -0.269.

Take GACCAAUCUGCCCUCAGAGCUCGAGAACAUCUUCGGAUGCAGAGGAGGUGGGCUUCGGUGGCGCGAUAGCGCCAACGCCCUCAACCUCCAAUGCAUCCCACCACAUGAUGAUGCAUGAAGAGCCUUGGUUUUUUG: the “polymerase ribozyme fitness (log ratio)” value is -1.98.

With GACCAAUAUGCCCUCAGAGCUCGAGAACAUCUUCGGAUGCAGAGGAGGCAGGCUUCGGUGACGCGAUAGCGCCAACGUCCUCAACCUCCAAUGCAUCCCACCACAUGAUGAUGCUUGAAGAGCCUUGGUUUUUUG, the “polymerase ribozyme fitness (log ratio)” value was -0.118.

Consider GACCAAUCUGCCCUCAGAGCUCGAGAACAUCUUCGGAUGCAGAGGAGGCAGGCUUCUGUGGCGCGAUAGCGCCAACGUCCUCAACCUCCAAUGCAUCCCACCACAUUAUGAUGCCUGAAGAGCCUUGGUUUUUUG, for which the “polymerase ribozyme fitness (log ratio)” value was -5.11.

Regarding GACCAAUCUGCCCUCAGAGCUCGAGAACAUCUUCGGAUGCAGAGGUGGUAGGCUUCGGUGGCGCGAUAGCGCCAACGUCCUCAACCUCCAAAGCAUCCCACCACAAGAUGAUGCCUGAAGAGCCUUGGUUUUUUG, the “polymerase ribozyme fitness (log ratio)” value was -7.34.

In the case of GACCAAUCUGCCCUCAGAGCUCGAGAACAUCUUCGGAUGCAGAGGAGGCAGGCUUCGGUGGCACGAUGGCGCCAACGUCCUCAACCUCCAAUGCAUCCCACCACAUGAUGAUGCCUGAAGAGCCUUGGUUUUUUG, the “polymerase ribozyme fitness (log ratio)” value was -3.95.

As to GACCAAUCUGCCCUCAGAGCUCGAGAAAAUCUUCGGAUGCAGAGGAGGCAGGCUUCGGUGUCGCGAUAGCGCCAACGUCCUCAACCUCCAAUGCAUCCCACCACAUGAUGAUGCCUGAAGAGCCUUGGUUUUUUG, the “polymerase ribozyme fitness (log ratio)” value was -3.73.

(Values after the RNAGym collection of RNA variant scans (doi:10.1073/pnas.2313332121).)
